To fix the notation:
B1: wrmScarlet::TDPT-1 [C. elegans] / TOP-2::3xFLAG [C. elegans] (parent)
chain 1: MSNSDDEIQEIEAKRQKMSQEDSEVEIEILDEPEQGKLKNSSMSDEQKLHEFAIITATDEAFAQSILQDVDWDLKKALDVFYGSEAFAEARSAAVMGASSSMASSGAAVMTAEDLKGFEVSVMSWNIDGLDGRSLLTRMKAVAHIVKNVNPDILFLQEVVDRDLAPIDKLQSLYKIYYSNKGCQYYTAILVSKMFDVEKHDVIHFQNSGMYRTLQILEGSIGGLKVFLLNTHLESTREHRPQRCAQFGFCMDKVREIIAQNPGALVFFGGDLNLRDEEVSRVPDGVKDAWEAAGSDNKTKFTWDTFKNDNKQGFHGAKMRFDRLYWSGPLDKVKFTLEGRQRIRSCLCFPSDHWAINATFFA
chain 2: MSDSDSEFSIEDSPKKKTAPKKEKASPKKKKDDANESMVMTEEDRNVFTSIDKKGGGSKQMAIEDIYQKKSQLEHILLRPDTYIGSVEHTEKTPMWVYNMEESKLEQRDISYVPGLYKIYDEILVNAADNKQRDPKMNTIKITINKEKNEISVYNNGKGIPVTQHKVEKVYVPELIFGTLLTSSNYNDDEKKVTGGRNGYGAKLCNIFSTKFTLETSSRDYKSAFKQTWIKNMTRDEEPKIVKSTDEDFTKITFSPDLAKFKMKELDDDICHLMARRAYDVAGSSKGVAVFLNGKRIPIKGFEDYVQMYTSQFNNEGEPLKIAYEQVGDRWQVALALSEKGFQQVSFVNSIATTKGGRHVDYVADQMVAKFIDSIKRKLTKTSMNIKPFQIKNHMWVFVNCLIENPTFDSQTKETMTLQQKQFGSTCVLSEKFSKAASSVGITDAVMSWVRFKQMDDLNKKCSKTKTSKLKGIPKLEDANDAGTKNSQQCTLILTEGDSAKTLAVSGLSVVGRDKYGVFPLRGKLLNVREGNMKQIADNAEVNAMIKILGLQYKKKYETEDDFKTLRYGKLMVMADQDQDGSHIKGLVINFIHHFWPSLIQRNFVEEFITPIVKATKGKEEVSFYSLPEYSEWRMNTDNWKSYKIKYYKGLGTSTSKEAKEYFLDMVRHRIRFKYNGADDDNAVDMAFSKKKIEERKDWLSKWMREKKDRKQQGLAEEYLYNKDTRFVTFKDFVNRELVLFSNLDNERSIPCLVDGFKPGQRKVLFACFKRADKREVKVAQLAGAVAEISAYHHGEQSLMGTIVNLAQDYVGSNNINLLLPIGQFGTRLQGGKDSASARYIFTQLSPVTRTLFPAHDDNVLRFLYEENQRIEPEWYCPIIPMVLVNGAQGIGTGWSTNIPNYNPRELVKNIKRLIAGEPQKALAPWYKNFRGKIIQIDPSRFACYGEVAVLDDNTIEITELPIKQWTQDYKEKVLEGLMESSDKKSPVIVDYKEYHTDTTVKFVVKLSPGKLRELERGQDLHQVFKLQAVINTTCMVLFDAAGCLRTYTSPEAITQEFYDSRQEKYVQRKEYLLGVLQAQSKRLTNQARFILAKINNEIVLENKKKAAIVDVLIKMKFDADPVKKWKEEQKLKELRESGEIELDEDDLAAVAVEEDEAISSAAKAVETKLSDYDYLVGMALIKLSEEEKNKLIKESEEKMAEVRVIEKKTWQDLWHEDLDNFVSELDKQEAREKADQDASIKNAAKKLAADAKTGRGPKKNVCTEVLPSKDGQRIEPMLDAATKAKYEKMSQPKKERVKKEPKEPKEPKKVKKEGQDIKKFMSPAAPKTAKKEKSDGFNSDMSEESDVEFDEGIDFDSDDDGVEREDVVSKPKPRTGKGAAKAEVIDLSDDDEVPAKKPAPAKKAAPKKKKSEFSDLSGGDSDEEAEKKPSTSKKPSPKKAAPKTAEPKSKAVTDFFGASKKNGKKAAGSDDEDDESFVVAPREKSGRARKAPPTYDVDSGSDSDQPKKKRGRVVDSDSD

The variants in the first test derive from B1. As to the kind of experiment: co-immunoprecipitation (anti-FLAG magnetic agarose beads) with anti-RFP immunoblot, band quantification. To be noted: with TOP-2::3xFLAG [C. elegans]; parent: 1; read off a plot. (In general: In western blotting, separated proteins are transferred to a membrane and probed.)
For chain 1 MSNSDDEIQEIEAKRQKMSQEDSEVEIEILDEPEQGKLKNSSMSDEQKLHEFAIITATDEAFAQSILQDVDWDLKKALDVFYGSEAFAEARSAAVMGASSSMASSGAAVMTAEDLKRFEVSVMSWNIDGLDGRSLLTRMKAVAHIVKNVNPDILFLQEVVDRDLAPIDKLQSLYKIYYSNKGCQYYTAILVSKMFDVEKHDVIHFQNSGMYRTLQILEGSIGGLKVFLLNTHLESTREHRPQRCAQFGFCMDKVREIIAQNPGALVFFGGDLNLRDEEVSRVPDGVKDAWEAAGSDNKTKFTWDTFKNDNKQGFHGAKMRFDRLYWSGPLDKVKFTLEGRQRIRSCLCFPSDHWAINATFFA [chain 1 G117R], the ratio to parent was 0.42.

Still in this test, the particulars now being: with wrmScarlet::TDPT-1 [C. elegans]; parent: 1; read off a plot.
With chain 2 R828C, the ratio to parent was found to be 1.

Source of the values: paper PMC11261448.
